Laboratory results published in paper PMC10397247.

Tests used:
4H3817-bH = molecular target: T1, 4H3817-bH; assay: two-hybrid library CCNG1;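 further: natural log of median RNA to DNA barcode read ratio; higher means stronger binding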
T1 chain: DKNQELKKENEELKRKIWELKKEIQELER

4H3858-bH = molecular target: T2, 4H3858-bH; assay: two-hybrid library CCNG1;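 further: natural log of median RNA to DNA barcode read ratio; higher means stronger binding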
T2 chain: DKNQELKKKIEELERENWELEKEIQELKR

4H3974-bH = molecular target: T3, 4H3974-bH; assay: two-hybrid library CCNG1;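 further: natural log of median RNA to DNA barcode read ratio; higher means stronger binding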
T3 chain: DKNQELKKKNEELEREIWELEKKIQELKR

4H4073-bH = molecular target: T4, 4H4073-bH; assay: two-hybrid library CCNG1;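 further: natural log of median RNA to DNA barcode read ratio; higher means stronger binding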
T4 chain: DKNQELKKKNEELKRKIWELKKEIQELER

4H570-bH = molecular target: T5, 4H570-bH; assay: two-hybrid library CCNG1
T5 chain: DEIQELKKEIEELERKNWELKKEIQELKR

4H584-bH = molecular target: T6, 4H584-bH; assay: two-hybrid library CCNG1
T6 chain: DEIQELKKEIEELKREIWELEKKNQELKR

4H619-bH = molecular target: T7, 4H619-bH; assay: two-hybrid library CCNG1
T7 chain: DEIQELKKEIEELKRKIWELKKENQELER

4H850-bH = molecular target: T8, 4H850-bH; assay: two-hybrid library CCNG1
T8 chain: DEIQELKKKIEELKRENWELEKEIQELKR

4H906-bH = molecular target: T9, 4H906-bH; assay: two-hybrid library CCNG1
T9 chain: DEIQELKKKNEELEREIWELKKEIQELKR

APC2981-AA = molecular target: T10, APC2981-AA; assay: two-hybrid library CCmax
T10 chain: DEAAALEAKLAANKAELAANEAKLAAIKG

APC3265-AA = molecular target: T11, APC3265-AA; assay: two-hybrid library CCmax; conditions: mean of both orientations
T11 chain: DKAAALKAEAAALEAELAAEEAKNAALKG

APC3323-AA = molecular target: T12, APC3323-AA; assay: two-hybrid library CCmax; conditions: mean of both orientations
T12 chain: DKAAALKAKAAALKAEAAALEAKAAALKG

APC3354-AA = molecular target: T13, APC3354-AA; assay: two-hybrid library CCmax; conditions: mean of both orientations
T13 chain: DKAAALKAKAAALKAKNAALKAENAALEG

APC3881-AA = molecular target: T14, APC3881-AA; assay: two-hybrid library CCmax; conditions: mean of both orientations
T14 chain: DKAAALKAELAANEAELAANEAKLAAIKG

APC4100-AA = molecular target: T15, APC4100-AA; assay: two-hybrid library CCmax; conditions: mean of both orientations
T15 chain: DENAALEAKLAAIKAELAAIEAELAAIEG

APC4336-AA = molecular target: T16, APC4336-AA; assay: two-hybrid library CCmax; conditions: mean of both orientations
T16 chain: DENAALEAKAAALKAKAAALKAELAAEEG

APC5009-AA = molecular target: T17, APC5009-AA; assay: two-hybrid library CCmax; conditions: mean of both orientations
T17 chain: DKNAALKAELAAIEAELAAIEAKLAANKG

APC542-AA = molecular target: T18, APC542-AA; assay: two-hybrid library CCmax; conditions: mean of both orientations
T18 chain: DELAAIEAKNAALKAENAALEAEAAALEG

APC5531-AA = molecular target: T19, APC5531-AA; assay: two-hybrid library CCmax; conditions: mean of both orientations
T19 chain: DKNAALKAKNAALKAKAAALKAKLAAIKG

APC6088-AA = molecular target: T20, APC6088-AA; assay: two-hybrid library CCmax; conditions: mean of both orientations
T20 chain: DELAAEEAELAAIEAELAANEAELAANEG

APC7524-AA = molecular target: T21, APC7524-AA; assay: two-hybrid library CCmax; conditions: mean of both orientations
T21 chain: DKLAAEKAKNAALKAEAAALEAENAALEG

APC8401-AA = molecular target: T22, APC8401-AA; assay: two-hybrid library CCmax; conditions: mean of both orientations
T22 chain: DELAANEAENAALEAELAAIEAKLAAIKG

APC8516-AA = molecular target: T23, APC8516-AA; assay: two-hybrid library CCmax; conditions: mean of both orientations
T23 chain: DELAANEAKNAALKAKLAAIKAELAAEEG

APC9141-AA = molecular target: T24, APC9141-AA; assay: two-hybrid library CCmax; conditions: mean of both orientations
T24 chain: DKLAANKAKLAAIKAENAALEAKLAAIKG

APC9182-AA = molecular target: T25, APC9182-AA; assay: two-hybrid library CCmax; conditions: mean of both orientations
T25 chain: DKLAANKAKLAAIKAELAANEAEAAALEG

APC9291-AA = molecular target: T26, APC9291-AA; assay: two-hybrid library CCmax; conditions: mean of both orientations
T26 chain: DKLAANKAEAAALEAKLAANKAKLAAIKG

APC9806-AA = molecular target: T27, APC9806-AA; assay: two-hybrid library CCmax; conditions: mean of both orientations
T27 chain: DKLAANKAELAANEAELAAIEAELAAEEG

4H3497-bH = molecular target: T28, 4H3497-bH; assay: two-hybrid library CCNG1
T28 chain: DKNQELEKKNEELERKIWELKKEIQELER

4H3613-bH = molecular target: T29, 4H3613-bH; assay: two-hybrid library CCNG1
T29 chain: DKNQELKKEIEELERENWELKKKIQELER

4H3628-bH = molecular target: T30, 4H3628-bH; assay: two-hybrid library CCNG1
T30 chain: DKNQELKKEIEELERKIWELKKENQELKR

4H3926-bH = molecular target: T31, 4H3926-bH; assay: two-hybrid library CCNG1
T31 chain: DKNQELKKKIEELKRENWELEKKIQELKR

4H591-bH = molecular target: T32, 4H591-bH; assay: two-hybrid library CCNG1
T32 chain: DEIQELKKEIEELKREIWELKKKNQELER

4H626-bH = molecular target: T33, 4H626-bH; assay: two-hybrid library CCNG1
T33 chain: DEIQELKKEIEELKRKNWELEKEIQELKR

## DKNQELKKENEELKRKIWELKKEIQELER [4H3817-bH]
4H3817-bH
  interaction score: 0.775
4H3858-bH
  interaction score: -0.973
4H3974-bH
  interaction score: 0.787
4H4073-bH
  interaction score: -1.13
4H570-bH
  interaction score: -0.71
4H584-bH
  interaction score: -0.723
4H619-bH
  interaction score: 0.591
4H850-bH
  interaction score: -0.885
4H906-bH
  interaction score: -0.699

## DEAAALEAKLAANKAELAANEAKLAAIKG [APC2981-AA]
APC2981-AA
  interaction score: -1.58
APC3265-AA
  interaction score: -1.62
APC3323-AA
  interaction score: -1.68
APC3354-AA
  interaction score: -2.3
APC3881-AA
  interaction score: -1.67
APC4100-AA
  interaction score: -1.62
APC4336-AA
  interaction score: -2.05
APC5009-AA
  interaction score: -1.75
APC542-AA
  interaction score: -1.62
APC5531-AA
  interaction score: -1.79
APC6088-AA
  interaction score: -1.49
APC7524-AA
  interaction score: -1.71
APC8401-AA
  interaction score: -1.71
APC8516-AA
  interaction score: -1.73
APC9141-AA
  interaction score: -1.53
APC9182-AA
  interaction score: -1.76
APC9291-AA
  interaction score: -1.74
APC9806-AA
  interaction score: -1.51

## DKNQELEKKNEELERKIWELKKEIQELER [4H3497-bH]
4H3497-bH
  interaction score: -1.02
4H3613-bH
  interaction score: -0.463
4H3628-bH
  interaction score: 0.758
4H3926-bH
  interaction score: -0.573
4H591-bH
  interaction score: -1.46
4H626-bH
  interaction score: -0.895
4H906-bH
  interaction score: -0.345
